Measured values published in US20080227696A1 (BIOSURFACE ENGINEERING TECHNOLOGIES, published 2008).
Where no end group is shown, it is not given here. [ ]: non-standard residue; d: D form. Ahx = NCCCCCC(=O)O

Molecular target: T1, Soluble PDGF receptor, recombinant chimera of human PDGF-R-alpha (R&D Systems) (human, UniProt P16234 24-524)
T1 construct: Bought from R&D Systems; immobilized on a CM5 chip by EDC/NHS; not shown: called a recombinant chimera
Test: SPR, BIAcore 2000, receptor immobilized on CM5 chip, peptide as analyte, 1:1 global fit
Procedure: Surface Plasmon Resonance (SPR) Analysis. Real-time biomolecular interactions were analyzed with a BIAcore 2000 system (Biacore Inc., Piscataway, N.J.). Soluble PDGF receptor, recombinant chimera of human PDGF-R-alpha and PSGF-R-beta (R &D Systems, Minneapolis, Minn.), was immobilized on research grade CM5 chips (Biacore Inc., Piscataway, N.J.). Following activation with EDC/NHS, the receptors were immobilized on activated CM5 chips. To obtain kinetic data, different concentrations of analytes in HBS-EP buffer were injected over the sensor chip at a flow rate of 50 μl/min. Peptide binding was measured in resonance units (RU). At the end of each sample injection (120 s) buffer was passed over the sensor surface to monitor the dissociation phase. Reference responses from blank flow cells were subtracted from receptor-containing flow cells for each analyte injection and the kinetic parameters for each interaction were determined by globally fitting the experimental data to a 1:1 interaction with BIAEVALUATION software (Biacore Inc., Piscataway, N.J.). The association rate constant and the dissociation rate constant (kₐ and kd, respectively), and the equilibrium dissociation constant (KD) are presented in the Table 4 for the receptors and PBA2-1.

T1 sequence (P16234 24-524, change not shown): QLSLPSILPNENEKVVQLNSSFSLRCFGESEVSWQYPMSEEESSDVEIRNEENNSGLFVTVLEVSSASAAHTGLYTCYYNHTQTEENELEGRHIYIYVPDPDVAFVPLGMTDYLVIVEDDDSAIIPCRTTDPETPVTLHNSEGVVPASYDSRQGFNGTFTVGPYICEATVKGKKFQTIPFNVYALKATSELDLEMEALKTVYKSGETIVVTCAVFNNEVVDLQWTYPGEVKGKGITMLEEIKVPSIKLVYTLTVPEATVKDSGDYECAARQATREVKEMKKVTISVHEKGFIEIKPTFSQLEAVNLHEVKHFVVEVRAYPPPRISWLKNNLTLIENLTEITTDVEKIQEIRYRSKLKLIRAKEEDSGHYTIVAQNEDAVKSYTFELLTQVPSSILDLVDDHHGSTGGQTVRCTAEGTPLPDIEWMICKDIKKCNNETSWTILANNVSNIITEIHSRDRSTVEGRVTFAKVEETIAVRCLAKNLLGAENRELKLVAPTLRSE

B1: PBA2-1 (peptide)
chain 1: VRKIEIVRKKK[Ahx][Ahx][Ahx]RKRKLERIAR-NH2
chain 2: VRKIEIVRKK
modifications: also: chain 2 bound through its C-terminus to the side chain of Lys11 of chain 1 (branched homodimer), bond at chain A 11 to a chain's C-terminus
notes: also called mimetic of PDGF; PDGF analog PBA2-1
B1 was tested, and the Kd was 23.3 nM.
